# In the RNAGym collection of RNA variant scans (doi:10.1073/pnas.2313332121):
# B1: TPR t1 (parent)
# chain: GACCAAUCUGCCCUCAGAGCUCGAGAACAUCUUCGGAUGCAGAGGAGGCAGGCUUCGGUGGCGCGAUAGCGCCAACGUCCUCAACCUCCAAUGCAUCCCACCACAUGAUGAUGCCUGAAGAGCCUUGGUUUUUUG
# Variants of: B1
# Experiment: polymerase ribozyme fitness, log enrichment relative to wild type (log ratio); higher = more active; in vitro selection for triplet polymerase activity
# In short: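 Mutant libraries for each subunit of a heterodimeric triplet polymerase ribozyme were made by PCR and then transcribed. Each library underwent one round of in vitro selection in triplicate: annealing with a biotinylated primer, the partner subunit and triplets, frozen incubation at −7 °C, gel excision of extended constructs, streptavidin-bead capture and RT-PCR. Input and output libraries were Illumina-sequenced, and only genotypes with ≥10 input reads and ≥1 read per output were kept. Fitness is the logarithm, base 2, of genotype enrichment over wild-type enrichment, computed from inverse-variance-weighted replicate averages.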
row,Variant,polymerase ribozyme fitness (log ratio)
1,GACCAAUCUGCACUCAGAGCUCGAGAACAUCUUCGGAUGCAGAGGAGUCAGGCUUCGGUGGCGCGAUAGCGCCAACGUCCUCAACCUCCAAUGCAUCUCACCACAUGAUGAUGCCUGAAGAGCCUUGGUUUUUUG,-2.11
2,GACCAAUCUGCACUCAGAGCUCGAGAACAUCUUCGGAUGCAGAGGAGGCAUGCUUCGGUGGCGCGAUAGCGCCAACAUCCUCAACCUCCAAUGCAUCCCACCACAUGAUGAUGCCUGAAGAGCCUUGGUUUUUUG,-1.98
3,GACCAAUCUGCACUCAGAGCUCGAGAACAUCUUCGGAUGCAGAGGACGCAGGCUUCGGUGGCGCGAUAGUGCCAACGUCCUCAACCUCCAAUGCAUCCCACCACAUGAUGAUGCCUGAAGAGCCUUGGUUUUUUG,-0.753
4,GACCAAUCUGCACUCAGAGCACGAGAACAUCUUCGGAUGCAGAGGAGGCAGGAUUCGGUGGCGCGAUAGCUCCAACGUCCUCAACCUCCAAUGCAUCUCACCACAUGAUGAUGCCUGAAGAGCCUUGGUUUUUUG,-4.86
5,GACCAAUCUGCACUCAGAGCUCGAGAACAUCUUCGGAUGCAGAGGAGGCAGGCUUCGGUAGCGCGAUAGCGCCAACGUCCUCAACCUCCAAUGCAUCCCACCACAUGAUGAUGCCUGAAGAGCCUUGGUUUUUUG,-1.28
6,GACCAAUCUGCACUCAGAGCUCGAGAACAUCUUCGGAUGCAGAGGAGGCAGGCUUCUGUGGCGCGAUAGCGCCAACGUCCUCAACCUCCAGUGCAACCCACCACAUGAUGAUGCCUGAAGAGCCUUGGUUUUUUG,-3.09
7,GACCAAUCUGCACUCAGAGCUCGAGAACAUCUUCGGAUGCAGAGGAGUCAGGCUUCGGUGGCGCGAUAGCGCCAACGUCCUCAACCUCCAAUGCAUCCCACCACAUGAUGAUGCCUGAAGAGCCUUGGUUUUUUG,-2.61
8,GACCAAUCUGCACUCAGAGCUCGAGAACAUCUUCGGAUGCAGAGGAGGCAGGCUUCGGUGGCGCGAUAGCGCCAACGUCCUCAACCUCCAAUGCAUCCCACCACAUCAUGAUGCCUGACAAGCCUUGGUUUUUUG,-4.18
9,GACCAAUCUGCACUCAGAGCUCGAGAACAUCUUCGGAUGCAGAGGAGGCAUGCUUCGGUGGCGUGAUAGCGCCAACGUCCUCAACCUCCGAUGCAUCCCACCACAUGAUGAUGCCUGAAGAGCCUUGGUUUUUUG,-2.6
10,GACCAAUCUGCACUCAGAGCUCGAGAACAUCCUCGGAUGCAGAGGAGGCAGGCUUCGGUGGCGCGAUAGCGCCAACGUCCUCAACCUCCAAUGCAACCCACCACAUGAUGAUGCCUGAAGACGCUUGGUUAUUUG,-0.725
11,GACCAAUCUGCACUCAUAGCUCGAGAACAUCUUCGGAUGCAGUGGAGGCAGGCUUCGGUGGCGCGAUAGCGCCAACGUCCUCAACCUCCAAUGCAUCCCACCACAUGAUGAUGCCUGAAGAGCCUUGGUUUUUUG,-4.46
12,GACCAAUCUGCACUCAGAGCUCGAGAACAUCUCCGGAUGCAGAGGAGGCAGGCUUCGGUGGCGCGAUAGCGCCAACGUCCUCAACCUCCAAUGCAUCCCACCCCAUGAUGAUUGCUGAAGAGCCUUUGUUUUUUG,-6.43
13,GACCAAUCUGCACUCAGAGCUCGAGAACAUCUUCGGAUGCAGAGGAGGCAGGCUUCGGUGGCGCGAUAGCGCCAACGUCCUCAACCUCCAAUGCAUCCCACCACAUGAUGAUGCCUAAAGAGCCUUGGUUUUUUG,-1.29
14,GACCAAUCUGCACUCAGAUCUCGAGAACAUCUUCGGAUGCAGAGGAGGCAGGCUUCGGUGGCGCGAUAGCGCAAACCUCCUCAACCUCCAAUGCAUCCCACCACAUGAUGAUGCCUGAAGAGCCUUGGUUUUUUG,-5.03
15,GACCAAUCUGCACUCAGAGCUCGAGAACAUCUUCGGAUGCAGAGGAGGCAGGCUUCGGUGGCGCGAUACCGCCAACGUCCUCAAACUCCAAUGCAUCCCACCACAUGAUGAUUCCUGAAGAGCCUUAGUCUUUUG,-7.98
16,GACCAAUCUGCACUCAGAGCUCGAGAACAUCUUCGGAUGCAGAGCAGGCAGGCUUCGGUGGCGCGAUAGCGCCAACGUCCUCAACCUCCAAUGCAUCCCACCACAUGAUGAUGCCUGAAGAGCCUUGGUUUUUUG,-1.32
17,GACCAAUCUGCACUCAGAGCUCGAGAACAUCUUCGGAUGCAAAGGAGGCAGGCUUCGGUGGCGCGAUAGCGCCAACGUCCUCAACCUUCAAUGCAUCCCACCACAUGAUGAUGACUGAAAAGCCUUGGUUUUUUG,-2.22
18,GACCAAUCUGCACACAGAGCUCGAGAACAUCUUCGGAUGCAGAGGAGGCAGGCUUCGGUGGCGCGAUAGCGCCAACGUCCUCAACCAUCAAUGCAUCCCACCACAUGAUGAUGCCUGAAGAGCCUUGGUUUUUUG,-4.28
19,GACCAAUCUGCACUCAGAGCUCGAGAACAUCUUCGGAUGCAGAGGAGGCAGGCUUCGGUGGCGCGAUAGCGCCAACGUCCUCAACCUCCAAUGCAUCCCACCACAUGAUGAUGUCUGAAGAGCCUUGGUUUUUUA,-3.81
20,GACCAAUCUGCACUCAGAGCUCGAGAACAUCUUCGGAUGCAGAGGAGGCAGGCUUCGGUGGCCCGAUAGCGCCAACGUCCUCAACCUCCAAUGCAUCCCACGAUAUGAUGAUACCUGAAGAGCCUUGGUUUUUUG,-7.42
21,GACCAAUCUGCACUCAGAGCUCGAGAACAUCUUCGGAUGCAGAGGAGGCAGGCUUCGGUGGCGCGAUAGCGCCAACGUCCUCAACCUCCAAUGCAUCCCACCACAUGAUGAUGCCUGAACUGCCUUGGUUUUUUG,1.87

row,Variant,polymerase ribozyme fitness (log ratio)
1,GACCAAUCUGCACUCAGAGCUCGAGAACAUCUUCGGAUGCAGAGGAGGCAGGCUUCGGUGUCGCGAUAGCGCCAACGACCUCAACCUCCAAUGCAACCCACCACAUGAUGAUGCCUGAAGAGCCUUGGUUUUUUG,-1.84
2,GACCAAUCUGCACUCAGAUCUCGAGAACAUCUUCGGAUGCAUAGGAGGCAGGCUUCGGUGGCGCGAUAGCGCCAACGUCCUCAACCUCCAAAGCAUCCCACCACAUGAUGACGCCUGAAGAGCCUUGGGUUUUUG,-3.59
3,GACCAAUCUGCACUCAGAGCUCGAGAACAUCUUCGGAUGCAGAGCAGGCAGGCUUCGGUGGCUCGAUAGCGCCAACGUCCUCAACCUCCAAUGCAUCCCACCACAUGAUGAUGCCUGAAGAGCCUUGGUUUUUUG,-2.35
4,GACCAAUCUGCACUCAGAGCUCGAGAACAUCUUCGGAUGCAGAGGAGGCAGGCUUCGGUGGCGCGAUAGCGCCAACGUCCUCAACCUCCAAUGUAUCCCACCACAUGAUGAUGCCUGAAGAGCCUUGGUUUUUUG,-0.961
5,GACCAAUCUGCACUCAGAGCUCGAGAACAUCUUCGGAUGCAGAGGAGGCAGGCUUCGGUGGCGCGAUAGCGCCAACGUCCUCAACCUCCAAUGCAUCCCACCACAUGAUGAUGCCUGAAAAGCCUGGGUUUUUUG,0.354
6,GACCAAUCUGCACUCAGAGCUCGAGAACAUCUUCGGAUGCAGAGGAGGCAGGCUUCGGUGGCGCGAUAGCGCCAACGUCCUCAACCUCCAAUGCAUCCCACUACAUGAUGAUGCAUGAAGAGCCUUGGUUUUUUG,-4.21
7,GACCAAUCUGCACUCAGAGCUCGAGAACAUCUUCGGAUGCAUAGGAGGCAGGCUUCGGUGGCGCGAUAGCGCCAACGUCCUCAACCUGCAAUGCAUCCCACCACAUGAUGAUGUCUGAAGAGCCUUGGUUUUUUG,-4.43
8,GACCAAUCUGCACUCAGAGCUCGAGAACAUCUUCGGAUGCAGAGGAGGCAGGCUUCGGUGGCGCGAUACCGCCAACGUCCUCAACCUCCUAUGCAUCCCACCACAAGAUGAUGCCUGAAGAGCCUUGGUUUUUUG,-4.63
9,GACCAAUCUGCACUCAGAGCUCGAGAACAUCUUCGGAUGCAGAGGAGGCAGGCUUCGGUGGCGCGAUAGCGCCAACGUCCUCAACUUCCAAUGCAUCCCACCACAUGAUGUUGCCUGAAGAGCCUUGGUUUUUUG,-3.42
10,GACCAAUCUGCACUCAGAGCUCGAGAACAUCUACGGAUGCAGAGGAGUCAGGCUUCGGUGGCGCGAUAGCGCCCACGUCCUCAACCUCCAAUGUAUCCCACCACAUGAUGAUGCCUGAAGAGCCUUGGUUUUUUG,-5.8
11,GACCAAUCUGCACUCAGAGCUCGAGAACAUCUUCGGAUGCAGAGGAGGCAGACUUCGGUGGCGCGAUAGCGCCAACGUCCUCAACCUCCAGUGCAUCCCACCACAUGAUGAUGCCUGAAGAGCCUUGGUUUUUUG,-1.2
12,GACCAAUCUGCACUCAGAGCUCGAGAACAUCUUCGGAUGCAGAGGAGGCAGGCUUCGGUGGCGCGAUAGCGCCAACUUCCUUAACCUCCAAUGCAUCCCACCACAUGAUGAUGCCUGAAGAGCCUUGGUUUUUUG,-1.87
13,GACCAAUCUGCACUCAGAGCUCGAGAACAUCUUCGGAUGCAGAGGAGGCACGCUUCGGUGGCGCGAUAGCGCCAACGUCCUCAACCUCCAAUGCAUCCCACCACAUGAUGAUGCCUGAAGAGCCUUGGUUUUUUG,-4.5
14,GACCAAUCUGCACUCAGAGCUCGAGAACAUCUUCGGAUGCAGAGGAGGCAAGCUUCGGUGGCGCGAUAGCGCCAACGUCCUCAACCUCCAAUGCAUCCCACCACAUGAUGAUGCCUGAAGAGCCUUGGUUUUUUG,-2.41
15,GACCAAUCUGCACUCAGAGCUCGAGAACAUCUUCGGAUGCAGAGGAGGCAGGCUUCGGUGCCGCGAUAGCGCCAACGCCUUAAACCUCCAAUGCAUCCCACCACAUGAUGAUGCCUGAAGCGCCUUGGUUUUUUG,-7.45
16,GACCAAUCUGCACUCAGAACUGGAGACCAACUUCGGAUGAAGAGGCGGCAGGCUUAGGUGGCGCGAUAGCGCCAACGUCCUAAACCUCCAAGGCAUCCCACCACAUGAGGAUGCCUGAAGAGCCUUGGUUUUUUG,-8.5
17,GACCAAUCUGCACUCAGAGCUCGAGAACAUCUUCGGAUGCAGAGGAGGCAGGCUUCGGUGUCGCGCUAGCGCCAACGCCAUCAACCUCCAAUGCAUCCCACCACAUUAUGAUGUCUGAAGAGCCUUCGUUUUUUG,-6.6
18,GACCAAUCUGCACUCAGAGCUCGAGAACAUCUUCGGAUGCAGAGGAGGCAGGCUUCGGUGGCGCGAUAGCGCCAACGUCCUCAACCUCGAAUACAUCCCACCACAUGAUGAUGCCUGAAGAGCCUUGGUUUUUUG,-2.86
19,GACCAAUCUGCACUCAUAGCUCGAGAACAUCUUCGGAUGCAUAGGAGGCAGGGUUCGGCGGCGCGAUAGCGCCAACGUCCUCAACCUCCAAUGCAUCCCAACACAUGAUGAUGCCUGAAGAGCCUUGGUUUUUUG,-5.66
20,GACCAAUCUGCACUCAGAGCUCGAGAACAUCUUCGGAUCCAGAGGAAGCAGGCUUCGGUGGCGCGUUAGCGCCAACGUCCUCAACCUCCAAUGCAUCCCACCACAUGAUGAUGCCUGAAGAGCCUUGGUUUUUUG,-3.14
21,GACCAAUCUGCACUCAGAGCUCGAGAACAUCUUCGGAUGCAGAGGAGGCAGGCUUCGGUGGCGCGAUAGCGCCAACGUCCUCAACCUCCAAUGCAUCCCACCACAUGAUCAUGCCUGAAGAGCCUUGGUUUUUUG,-3.17
